According to patent EP1722229B1:
pKi: −log10 of the molar value.

Experiments:
protein C (PC) [1] = molecular target: protein C (PC) (UniProt P04070); experiment: derived from the shift of the Km of PC activation by thrombin on EA.hy926 endothelial cells with 2 µM rhsEPCR
protein C (PC) [2] = molecular target: protein C (PC) (UniProt P04070); experiment: cell-based or functional assay

protein C (PC), sequence (P04070 43-461): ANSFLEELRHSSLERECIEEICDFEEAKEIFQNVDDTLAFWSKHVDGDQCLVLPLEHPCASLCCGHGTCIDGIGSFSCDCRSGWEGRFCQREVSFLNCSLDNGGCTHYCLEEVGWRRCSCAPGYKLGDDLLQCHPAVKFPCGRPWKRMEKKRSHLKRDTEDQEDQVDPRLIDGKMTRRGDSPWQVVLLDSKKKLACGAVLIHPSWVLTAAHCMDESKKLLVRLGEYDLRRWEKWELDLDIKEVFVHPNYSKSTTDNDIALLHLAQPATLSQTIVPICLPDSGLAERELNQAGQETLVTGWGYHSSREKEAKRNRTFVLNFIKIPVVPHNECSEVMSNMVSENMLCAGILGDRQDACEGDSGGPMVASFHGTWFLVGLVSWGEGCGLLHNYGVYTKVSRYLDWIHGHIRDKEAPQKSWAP

Substance: recombinant human soluble EPCR (rhsEPCR) (receptor)
- pKi (protein C (PC) [1]): 7.15
- Km of PC activation by thrombin on the surface of endothelial cells in the presence of rhsEPCR 2 µM (protein C (PC) [2]): 1 µM
